Assays:
[1] = molecular target: the molecule itself; assay: particle intensities calibrated to single GFP molecules (near-TIRF imaging of living embryos); posterior membrane, where PAR-3 density is lower; homozygous par-1 mutant embryos, late maintenance phase; streaming mode, 100% laser power, 50 msec exposure; features binned by intensity against the mean single molecule intensity after photobleaching; size distribution fitted to An = A1 α^n−1
[2] = molecular target: the molecule itself; assay: particle intensities calibrated to single GFP molecules (near-TIRF imaging of living embryos); anterior membrane, where PAR-3 density is higher; homozygous par-1 mutant embryos, late maintenance phase; streaming mode, 100% laser power, 50 msec exposure; features binned by intensity against the mean single molecule intensity after photobleaching; size distribution fitted to An = A1 α^n−1
[3] = molecular target: the molecule itself; assay: single molecule tracking and release curves (near-TIRF imaging of living embryos); single PAR-3::GFP molecules, 100% laser power, 50 msec exposures, duty ratio of exposure varied; release curves fitted to exponentials from tmin = 1 sec; linear fit kops = kdep + dr * kpb, the intercept is kdep (depolymerization of a subunit from membrane-bound oligomers); also in par-6(RNAi) and cdc-42(RNAi) embryos, no significant …

B1: PAR-3::GFP, endogenously tagged (C-terminal fusion of GFP to PAR-3 from the endogenous locus) (natural protein, C. elegans, UniProt Q17353 1-1379, looked up)
chain: MSASSTSSSSTSCPEGGEPSGSCKSSDEGESTLKKRMQQYGIASGYANSSISTLDRSQYQSLPLNGTRRVTVQFGRMKIVVPWKESDQTVGQLADAALLRYKKARGMANEDRIHVHRLECASDGGILDMDDVLEEVFDLNYDQILAITDEANGGSTTPTYSQIQKQQHHYAQPLPYARKFDGGPSTPIASAFGSVTVNHQAHRAASPYNVGFARSNSRDFAPQPTHSKERRDSVVEVSSFDQIPQSGLRVSTPKPSRQSEDVIDGKPMNQPILRSSLRTEASGSRTEEATPVKQSRVTLSPEVEKKLAEQDERKSERRKHYDKNPGRFARGSDRKSRITDALLDARDRIADQLESQNPAEETKSQMIRVKIDQGPMPGTSLVTFPPIPEKSENEKQLGIEVNAVFDESSELPGTSEPTKLSSVQIMKIEDGGRIAKDGRIRVGDCIVAIDGKPVDQMSIIRVRASISDLAAVTSRPVTLIINRSLESFLEQESSAKPIQSALQQANTQYIGHTTVVELIKSSNGFGFTVTGRETAKGERLFYIGTVKPYGVALGHLKSGDRLLEINGTPTGQWTQSEIVEKLKETMVGEKIKFLVSRVSQSAIMSTSASSENKENEETLKVVEEEKIPQKLPLPALMTPPVPKDTPALSPSGASRFEIVIPFINGSSSAGLGVSLKARVSKKSNGSKVDCGIFIKNVMHGGAAFKEGGLRVDDRIVGVEDIDLEPLDNREAQAALAKKLKEVGMISSNVRLTISRYNECNPGQISRDLSRITVDASSPSPSSRMSSHTAPDSLLPSPATRGTSSSGADSSHSRQSSASSAVPAVPARLTERDSIVSDGTSRNDESELPDSADPFNREGLGRKSLSEKRGMGAAADPQHIKLFQDIKHQRQNSAPTSSTQKRSKSQPRSSSQRNYRSPMKLVDLPTTAAASASTNSQNLDDSDMLNRRSQSMESINRPVESILRGTGQIPTGSSSKVQFMQAASPDQHPFPPGAALLRLKNEESRSRDKSRRKSMGNPFSAMRNFFGFGSKSRDASPEKTPTESVQLRSVERPKSIIDERNNGSSERAPPPLPPHQSQRRGSGGNVFVDYGEPYGLIPQYPHNTTSGYESYADSELYDRYAAHRYHPRGGPIIDEDEYIYRQQSTSGNSPINTSSYVNYGLPASNAYHVGSRIPPQTSSGSISKTSGAMRRVYPAEYDEDVAYHQQIPQQSTRYQQGSGSGRGNADYHHMFNSWFAYTGGGAVGAAPVIKSSYGSSPVRIAAASAIERGESFVVEPVSGSSASATDRRGRSTSSGAVASGSSSTGFQYAAKEKYADARSGKFNGGSTRLFIPRHGGGLSAAAFATNFGGEAYETRGGGAGGSPSQYRRRDQGPPHRFPQY
notes: PAR-3, C. elegans, oligomeric scaffold protein; expressed from the endogenous locus; Oligomers of variable size (exponential size distribution) at the cell membrane; also called endogenously-tagged PAR-3::GFP; par-1; source: expressed from the endogenous locus in C. elegans, observed in living one-cell embryos; not shown: GFP, C-terminal, kept
- stoichiometry N [1]: 1.65 ± 0.16 subunits (mean oligomer size)
- stoichiometry N [2]: 3.48 ± 0.65 subunits (mean oligomer size)

B2: PAR-3::GFP, transgenic (natural protein, C. elegans, UniProt Q17353 1-1379, looked up)
chain: MSASSTSSSSTSCPEGGEPSGSCKSSDEGESTLKKRMQQYGIASGYANSSISTLDRSQYQSLPLNGTRRVTVQFGRMKIVVPWKESDQTVGQLADAALLRYKKARGMANEDRIHVHRLECASDGGILDMDDVLEEVFDLNYDQILAITDEANGGSTTPTYSQIQKQQHHYAQPLPYARKFDGGPSTPIASAFGSVTVNHQAHRAASPYNVGFARSNSRDFAPQPTHSKERRDSVVEVSSFDQIPQSGLRVSTPKPSRQSEDVIDGKPMNQPILRSSLRTEASGSRTEEATPVKQSRVTLSPEVEKKLAEQDERKSERRKHYDKNPGRFARGSDRKSRITDALLDARDRIADQLESQNPAEETKSQMIRVKIDQGPMPGTSLVTFPPIPEKSENEKQLGIEVNAVFDESSELPGTSEPTKLSSVQIMKIEDGGRIAKDGRIRVGDCIVAIDGKPVDQMSIIRVRASISDLAAVTSRPVTLIINRSLESFLEQESSAKPIQSALQQANTQYIGHTTVVELIKSSNGFGFTVTGRETAKGERLFYIGTVKPYGVALGHLKSGDRLLEINGTPTGQWTQSEIVEKLKETMVGEKIKFLVSRVSQSAIMSTSASSENKENEETLKVVEEEKIPQKLPLPALMTPPVPKDTPALSPSGASRFEIVIPFINGSSSAGLGVSLKARVSKKSNGSKVDCGIFIKNVMHGGAAFKEGGLRVDDRIVGVEDIDLEPLDNREAQAALAKKLKEVGMISSNVRLTISRYNECNPGQISRDLSRITVDASSPSPSSRMSSHTAPDSLLPSPATRGTSSSGADSSHSRQSSASSAVPAVPARLTERDSIVSDGTSRNDESELPDSADPFNREGLGRKSLSEKRGMGAAADPQHIKLFQDIKHQRQNSAPTSSTQKRSKSQPRSSSQRNYRSPMKLVDLPTTAAASASTNSQNLDDSDMLNRRSQSMESINRPVESILRGTGQIPTGSSSKVQFMQAASPDQHPFPPGAALLRLKNEESRSRDKSRRKSMGNPFSAMRNFFGFGSKSRDASPEKTPTESVQLRSVERPKSIIDERNNGSSERAPPPLPPHQSQRRGSGGNVFVDYGEPYGLIPQYPHNTTSGYESYADSELYDRYAAHRYHPRGGPIIDEDEYIYRQQSTSGNSPINTSSYVNYGLPASNAYHVGSRIPPQTSSGSISKTSGAMRRVYPAEYDEDVAYHQQIPQQSTRYQQGSGSGRGNADYHHMFNSWFAYTGGGAVGAAPVIKSSYGSSPVRIAAASAIERGESFVVEPVSGSSASATDRRGRSTSSGAVASGSSSTGFQYAAKEKYADARSGKFNGGSTRLFIPRHGGGLSAAAFATNFGGEAYETRGGGAGGSPSQYRRRDQGPPHRFPQY
notes: PAR-3, C. elegans; transgenically expressed; The oligomers from which single labelled molecules depolymerise probably also hold unlabelled PAR-3 of the embryo; also called transgenic PAR-3::GFP; full length PAR-3::GFP
- koff [3]: 0.08 s⁻¹

Reference: doi:10.1101/2023.08.04.552031, “Oligomerization and positive feedback on membrane recruitment encode dynamically stable PAR-3 asymmetries in the C. elegans zygote” (bioRxiv, 2023)
